# Test results published in PMC8120272, “Heterologous Expression and Biochemical Characterization of the Human Zinc Transporter 1 (ZnT1) and Its Soluble C-Terminal Domain” (Frontiers in Chemistry, 2021).
# B1: soluble C-terminal domain of human zinc transporter 1 (hZnT1-CTD) (domain or fragment, UniProt Q9Y6M5 342-507, looked up)
# chain: ILLQTVPKQIDIRNLIKELRNVEGVEEVHELHVWQLAGSRIIATAHIKCEDPTSYMEVAKTIKDVFHNHGIHATTIQPEFASVGSKSSVVPCELACRTQCALKQCCGTLPQAPSGKDAEKTPAVSISCLELSNNLEKKPRRTKAENIPAVVIEIKNMPNKQPESSL
# notes: human zinc transporter 1 (ZnT1, SLC30A1), soluble C-terminal domain, residues 342-507; Cloned into pET24a with a C-terminal His8-tag; no removal of the tag is described
# Target: the molecule itself
# Test: SEC-SAXS (small-angle X-ray scattering); in-line SEC-SAXS with sheath flow, SAXS-WAXS beamline of the Australian Synchrotron; molecular mass estimated from the Porod volume; conditions in Supplementary Table 3
protein,measurement,value
B1,stoichiometry N,2
